Measured values reported in publication PMC6310021.

Biological target: purified rat recombinant TG2 protein (transgelin-2) (rat) (UniProt Q5XFX0)
Experiment: SPR

Chain of purified rat recombinant TG2 protein (transgelin-2) (rat) (Q5XFX0 whole entry): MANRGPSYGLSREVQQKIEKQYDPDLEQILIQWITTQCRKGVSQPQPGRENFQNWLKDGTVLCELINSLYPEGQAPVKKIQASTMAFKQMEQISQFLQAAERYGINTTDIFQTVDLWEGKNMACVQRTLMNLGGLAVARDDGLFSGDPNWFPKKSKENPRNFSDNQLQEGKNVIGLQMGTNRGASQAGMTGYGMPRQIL

## ezrin (analyte in Biacore surface plasmon resonance) (from UniProt P31977 1-586) (natural protein)
  Kd: 73.3 nM
